To fix the notation:
B2: His-MBP-RGNEF^1–275 (domain or fragment, human, UniProt Q8N1W1 1-275, looked up)
chain: MELSCSEAPLYGQMMIYAKFDKNVYLPEDAEFYFTYDGSHQRHVMIAERIEDNVLQSSVPGHGLQETVTVSVCLCSEGYSPVTMGSGSVTYVDNMACRLARLLVTQANRLTACSHQTLLTPFALTAGALPALDEELVLALTHLELPLEWTVLGSSSLEVSSHRESLLHLAMRWGLAKLSQFFLCLPGGVQALALPNEEGATPLDLALREGHSKLVEDVTNFQGRWSPSFSRVQLSEEASLHYIHSSETLTLTLNHTAEHLLEADIKLFRKYFWDR

The test “His-MBP-RGNEF^1–275” deals with B2. Kind of test: SPR. A general note: In SPR one partner is held on a chip, and binding of the other changes the refractive index at the surface.
Another test addresses His-GST-TDP-43^wt (human, UniProt Q13148 1-414). Kind of test: SPR.

Data on three molecules can be found in publication doi:10.1101/2023.09.29.560207 (bioRxiv, 2023).

Sequence of His-GST-TDP-43^wt (Q13148 whole entry): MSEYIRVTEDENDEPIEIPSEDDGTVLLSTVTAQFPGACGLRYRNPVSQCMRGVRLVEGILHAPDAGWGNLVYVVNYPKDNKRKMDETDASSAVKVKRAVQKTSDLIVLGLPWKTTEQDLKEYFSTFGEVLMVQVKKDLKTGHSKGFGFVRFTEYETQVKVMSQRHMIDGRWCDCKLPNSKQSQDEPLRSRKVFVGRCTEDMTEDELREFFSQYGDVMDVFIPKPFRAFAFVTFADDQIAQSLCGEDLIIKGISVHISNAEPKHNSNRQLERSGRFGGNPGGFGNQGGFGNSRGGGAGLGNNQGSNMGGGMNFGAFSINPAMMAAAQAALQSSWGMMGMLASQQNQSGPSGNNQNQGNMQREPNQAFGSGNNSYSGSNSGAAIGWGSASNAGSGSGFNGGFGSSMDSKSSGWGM

For the molecule “His-TDP-43^1–296 (from UniProt Q13148 1-261) (domain or fragment)”, the Kd (commonly the free concentration of one partner at which half of the binding sites on the other are occupied at equilibrium, for simple one-to-one binding) with His-MBP-RGNEF^1–275 was found to be 4110 nM.

B1: His-RRM-1 (domain or fragment, human, UniProt Q13148 101-191, looked up)
chain: QKTSDLIVLGLPWKTTEQDLKEYFSTFGEVLMVQVKKDLKTGHSKGFGFVRFTEYETQVKVMSQRHMIDGRWCDCKLPNSKQSQDEPLRSR
Turning to B1, the binding result with His-MBP-RGNEF^1–275 is “binds”.

With B2, the affinity with His-GST-TDP-43^wt, expressed as Kd, was 1780 nM.
